Four molecules from patent US20200172626A1 (EUTILEX, published 2020) can be followed below.

Numbering of substitutions follows the chain as printed.

The target in assay [1] is T1, human 4-1BB expressed on cells (human, UniProt Q07011 24-255). Put plainly: cell-based or functional assay.
For assay [2], the target named is T1, human 4-1BB expressed on cells. As to the kind of experiment: FACS on anti-CD3-activated human CD8+ T cells, antibody at 25 ng/ml. The protocol: CD8⁺ T cells were isolated from human PBMCs and activated with 1 μg/ml anti-CD3 antibody for 2 day. The ability of exemplary humanized anti-human 4-1BB antibodies (94K, 94 KV, 94KVT and EU101) described in Example 1 to detect a 4-1BB on the surface of activated […] T cells was assessed relative to an exemplary commercially available anti-4-1BB antibody (4-1BB-PE). Also shown is detection with a BBK-4 a murine anti-human 4-1BB antibody and a 94G1 reference humanized antibody. Treatment with 4-1BB antibodies was at a concentration of 25 ng/ml.
Exemplary antibodies were detected with an anti-mIgG-Dylight488 or anti-hIgG-Dylight488 as appropriate, and analyzed by FACS.

In assay [3] the target is T2, human 4-1BB antigen (H4-1BB) (human, UniProt Q07011 24-186, limits assumed). Put plainly: ELISA of Fab in E. coli supernatant, binding divided by expression level; data not shown. The protocol: ELISA was performed the following day on a supernatant obtained by centrifugation at 12,000 rpm for 10 minutes at 4° C.
A Fab antibody prepared by substituting the constant heavy chain of pCOM-Fab94G1-L with the heavy chain of the backbone 94G1 on the improved 94G1 light chain was called 94/w. Thus, a 94/w variant includes an improved 94G1 light chain in which the 6th amino acid of LCDR3 is substituted with tryptophan (W) ([…]—SEQ ID NO: 4) and a 94G1 heavy chain. IPTG-induced expression in E. coli and ELISA of a 94/w Fab was used to determine binding affinity as described above. Using this method, it was determined that a 94/w Fab antibody has a binding activity 3.5 times higher than that of 94G1 (Fab antibody) (data not shown).
(ELISA stands for enzyme-linked immunosorbent assay.)

Assay [4] has as its target T2, human 4-1BB antigen (H4-1BB). As to the kind of experiment: SPR (Biacore 3000, CM5 chip), antibody captured on immobilized anti-human IgG, human 4-1BB antigen (H4-1BB) flowed over. The source says: In vitro binding affinity of exemplary engineered antibody EU101 as described in Example 1, along with that of a reference 94G1 humanized antibody were each determined by Biacore analysis. Anti-human IgG was immobilized on a CM5 chip, and coupled to the Fab antibodies prepared above by flowing over the chip, and ultimately reacted with a human 4-1BB antigen (H4-1BB) to measure the binding activity between the antibody and the antigen (Biacore3000, sensor chip CM5). Ka (1/Ms) and Kd (1/s) values represent how fast an antibody associates with and dissociates from an antigen, respectively. A dissociation constant (KD) is obtain by dividing Kd by Ka (Kd/Ka=[…]).
(Surface plasmon resonance follows binding to a sensor surface in real time, without labels.)

Assay [5] concerns the target T3, GST-4-1BB ECD fragment R1.4 fusion polypeptide (human).
T3 construct: not shown: GST carrier at the N end (pGEX-6T, 27 kDa) and the vector-derived junction residues
T3 chain: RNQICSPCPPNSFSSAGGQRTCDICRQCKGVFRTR
As to the kind of experiment: western blot on E. coli whole cell extracts with GST fusion polypeptides. The procedure: (§1) FIG. 2A depicts an SDS-PAGE gel of whole cell extracts from cells expressing 4-1BB ECD fusion constructs. Fusion constructs as described above in FIG. 2A were expressed in E. coli BL21 cells induced with 1 mM IPTG, and whole cell extracts resolved by 12% SDS-PAGE. As shown, all fusion constructs (ECD, R1, R1.1, R1.2, R1.3, R1.4, R1.5, and R1.6) have robust protein expression. FIG. 2B depicts a western blot showing binding of an exemplary humanized anti-4-1BB antibody to full length 4-1BB ECD fusion polypeptide, and R1.1, R1.2, R1.3, and R1.6 fusion polypeptides, but not to the R1.4 or R1.5 fusion polypeptides. Immunoblots were performed with an exemplary anti-human 4-1BB antibody. Molecular size markers are indicated in kDa on the left.
(§2) SDS-PAGE was transferred to a nitrocellulose membrane and immunoblotting was performed using an exemplary anti-human 4-1BB antibody, EU101. […] It was also confirmed that a sequence including amino acids 35 to 50 of the 4-1BB extracellular domain is […] for binding an exemplary humanized antibody described herein (FIG. 2B).
For orientation: Immunoblotting shows a protein as a band on a membrane.

In assay [6] the target is T4, GST-4-1BB ECD fragment R2 fusion polypeptide (human, UniProt Q07011 76-130).
T4 construct: not shown: GST carrier at the N end (pGEX-6T, 27 kDa) and the vector-derived junction residues
As to the kind of experiment: western blot on GST fusion polypeptides. The procedure:
Purified protein samples were obtained from transformed bacterial cells by a lysis buffer (e.g., 10 mM Tris-HCl—pH 7.4, 50 mM NaCl, 5 mM EDTA, 30 mM NaF, 0.1 mM Na3VO4, 1% Triton X-100, 0.5% Nonidet P-40, 1 mM PMSF, and protease inhibitor mixture). Approximately 20 μg of each fusion polypeptide sample was diluted in a 4×SDS sample buffer, subjected to electrophoresis on SDS-PAGE gels, and then transferred to nitrocellulose membranes (Millipore, Bedford, Mass.). On the cellulose membranes, anti-human 4-1BB mAb was reacted with anti-mouse IgG horseradish […] (HRP). Binding antibodies were recognized by enhanced chemiluminescence (ECL) (Amersham Pharmacia Biotech, Little Chalfont, UK).
As described above and shown in FIG. 1B, when each of three non-overlapping H4-1BB ECD fragment-GST fusion polypeptides, R1, R2, and R3, were treated with GST-binding, respectively. It was determined that an exemplary humanized anti-4-1BB antibody encompassed by the present disclosure (EU101) binds to an N-terminal fragment construct (R1) fusion construct of approximately 32 kDa (amino acids 1 to 55 of 4-1BB) by western blotting.

In assay [7] the target is T5, GST-4-1BB ECD fragment R1.2 fusion polypeptide (human).
T5 construct: not shown: GST carrier at the N end (pGEX-6T, 27 kDa) and the vector-derived junction residues
T5 chain: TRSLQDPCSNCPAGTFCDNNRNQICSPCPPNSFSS
As to the kind of experiment: western blot on E. coli whole cell extracts (FIG. 2B). The procedure: as §1, §2

Assay [8] deals with T6, GST-4-1BB ECD fragment R1.1 fusion polypeptide (human, UniProt Q07011 21-65).
T6 construct: not shown: GST carrier at the N end (pGEX-6T, 27 kDa) and the vector-derived junction residues
T6 chain: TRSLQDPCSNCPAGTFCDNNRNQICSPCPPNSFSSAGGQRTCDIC
The assay is described as above. The protocol: as §1, §2

Assay [9] addresses T7, GST-4-1BB ECD fragment R1.3 fusion polypeptide (human, UniProt Q07011 31-75).
T7 construct: not shown: GST carrier at the N end (pGEX-6T, 27 kDa) and the vector-derived junction residues
T7 chain: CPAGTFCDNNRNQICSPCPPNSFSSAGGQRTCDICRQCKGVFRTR
Described as above. The procedure:
as §1, §2

Assay [10] has as its target T8, GST-4-1BB ECD fragment R1.6 fusion polypeptide (human, N-terminal GST fusion, not written).
T8 construct: not shown: GST carrier at the N end (27 kDa, pGEX-6T) and the vector-derived residues at the BamHI/XhoI junctions
T8 chain: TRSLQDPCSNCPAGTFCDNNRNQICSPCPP
The assay is described as above. The protocol: as §1, §2

T1 sequence (Q07011 24-255 limits assumed): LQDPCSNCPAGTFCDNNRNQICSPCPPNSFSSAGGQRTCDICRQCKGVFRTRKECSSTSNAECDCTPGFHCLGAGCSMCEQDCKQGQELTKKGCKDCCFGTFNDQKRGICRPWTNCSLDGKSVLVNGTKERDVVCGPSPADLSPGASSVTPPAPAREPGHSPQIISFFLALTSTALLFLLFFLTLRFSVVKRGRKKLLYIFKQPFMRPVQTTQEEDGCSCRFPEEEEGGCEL

B1: 94KVT (full length 94KVT/w antibody) (antibody, human IgG1)
heavy: not shown
VL: DIVMTQSPAFLSVTPGEKVTITCRASQTISDYLHWYQQKPDQAPKLLIKYASQSISGIPSRFSGSGSGTDFTFTISSLEAEDAATYYCQDGHSWPPTFGQGTKLEIK
notes: Full length IgG1
Consider B1, for which the “IFNgamma secretion by anti-CD3-treated CD8+ T cells, 1.0 ug/ml antibody, day 5, against the control group” value in assay [1] was 13 fold. Also, the “percent of CD8+ T cells on which 4-1BB was detected” value (from here on “percent of CD8+ T cells”) in assay [2] worked out at 25.3%.

B2: 94/w Fab antibody (Fab, V domains shown)
VH: QVQLQQSGAEVKKPGASVKLSCKASGYTFSSYWMHWVRQAPGQGLEWIGEINPGNGHTNYNEKFKSRATMTRDTSTSTAYMELSSLRSEDSAVYYCARSFTTARAFAYWGQGTLVTVSS
VL: B1 VL
notes: Fab expressed in E. coli TG1 from a pComb3H-derived vector and tested as culture supernatant; also called 941w
With B2, in assay [3], the “binding activity as fold of 94G1 (Fab antibody)” value turned out to be 3.5 fold.

B3: 94G1 reference humanized anti-human 4-1BB antibody (antibody, V domains shown)
VH: B2 VH
VL: B1 VL with W94F
Usually Kd stands for a measure of binding affinity in units of concentration. A word on the koff: it is the rate constant with which the complex falls apart. Read a low koff as slow dissociation. On to B3, for which the “percent of CD8+ T cells” value in assay [2] was 17.9%. Also, in assay [4], the affinity, expressed as Kd, was 0.602 nM and the koff amounted to 0.000118 s⁻¹.

B4: EU101 (antibody, human IgG1, L234A L235A)
heavy: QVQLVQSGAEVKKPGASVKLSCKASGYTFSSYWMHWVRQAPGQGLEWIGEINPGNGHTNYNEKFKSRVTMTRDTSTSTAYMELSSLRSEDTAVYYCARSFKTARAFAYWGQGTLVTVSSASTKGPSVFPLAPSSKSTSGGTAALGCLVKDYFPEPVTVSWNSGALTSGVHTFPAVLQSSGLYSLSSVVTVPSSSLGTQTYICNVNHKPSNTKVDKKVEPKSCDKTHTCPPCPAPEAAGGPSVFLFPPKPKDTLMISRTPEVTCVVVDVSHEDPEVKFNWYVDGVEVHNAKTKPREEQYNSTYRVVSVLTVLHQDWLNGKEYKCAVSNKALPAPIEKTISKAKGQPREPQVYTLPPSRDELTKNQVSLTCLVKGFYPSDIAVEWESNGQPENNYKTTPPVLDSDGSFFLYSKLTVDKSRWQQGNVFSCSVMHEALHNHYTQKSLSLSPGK
VL: B1 VL
notes: Full length antibody with the 94KVT/w variable domains and a variant IgG1 constant domain; The light chain constant domain is not tied to EU101; also called exemplary humanized anti-4-1BB antibody; exemplary anti-human 4-1BB antibody (EU101)
Regarding B4, the binding result in [5] was “no binding”; in assay [6] it was “no binding”; in assay [7] it was “binds”; in assay [8], “binds”; in assay [9], “binds”; in assay [10], “binds”. Also, the “IFNgamma secretion by anti-CD3-treated CD8+ T cells, 1.0 ug/ml antibody, day 5, against the control group” value in assay [1] amounted to 13 fold. Further, the “percent of CD8+ T cells” value in assay [2] was 28.3%. This molecule registered an equilibrium dissociation constant (Kd) in assay [4] of 0.0636 nM. Also, the koff in assay [4] was found to be 1.8e-05 s⁻¹.
